Assay: protease stability score; higher = more stable; yeast display proteolysis, trypsin and chymotrypsin;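 note: relative to predicted unfolded state with 0 unfolded-like and 1 meaning tenfold more protease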

Sequence | protease stability score
SEDTRIAEELWRIMMDADRTGDEDRSKEMIDPNTQFIFNGRDVIGREVWAELFLRIDHIHLRDVEIHDSEVFNGKIHIDGHVDQEIRIGDKTLVEKVKVELIVLKINGKWLLKEVRFH | 1.35
SEDTRLKEEFLRRVLESEHTGDFESLQEMLDPNTRIEFNGQELIGREEAERILHQARIHDVKIKSMRLIDGRIELNGVLDGNFNGRRRHLEVRIYITKIDGRWVLESIEIE | 1.49
SEDVEFIVRFIERFWHLLLTGNEEEFEKLLDPHVRIEINGVNLVGREEVTDWFKHIRIDDMRMIFRHSSVVDGRVNVIGALRRDGHINGQRVTEERDTRLHLYKVNGQWFLTEIELH | 1.5
SEDVERVRHSIIVWLHILLTGDEETISKYADPNARYVQGDKHHHGMEYIAIKIRELRWSVTMEIEHMHVVDGRAHIEGRLILRIHINGKEDVEDHELELHMIKVDGKWILHEIKIK | 1.59
SEDVRDAHEMARIFLEVFRTGNEHHHERMMDPHARVRFDGVDHHGREESTKLLLELWRRVDHLHMDITDLRVQGDKVEVHIRLENRYNGRTHIIHVHLVMIKVDGRWVIREIHFD | 0.752
SEEDDDSREVLELFVRLMVTGDFHELAELLDPNVRTHINGKERVGREQMIKILKRLFDEWGVDRVIVHVKHIDVQGEKAHMDGTLIYGDKMQKSHVTLIYVNGRLERIHIELN | 1.13
SEEDDQAEEFARKMITDFLTGNWKKMMDLFDPNVRLRWHVDGRDKHHIGREVVSEILRRYVEEIRIHSISIESVENYDGVSIVHSHYEWEVNGQKRETHVLLEFVIINGRARSISIHIH | 1.11
SEEDEADHELVQWMLEILQTGDEETFRTFADPSTRHISHIDGKEMHIHGRESASEVLLTTWKELGVDVFHLHQYRYFNGRVDIEFELHQGNKTIELHFHYQIINGRLKRIEIRVHHE | 1.14
SEEDEDAMRSAEFLVKKLNTGDEDWYQHLFDPHTKLEIGNFTSHGMHVSLKQWREMGADHVHVQDIDVFDGRVHVRTHIHVNGQTVEVLIILVKVNGRWIVERIRMK | 0.66
SEEDEDKELVRHLVEKLIKTGDETLMHEMFDPNARLRVNGRDFHGRESIVKAMLEFLRWLGVDHIHFEHIIVRIVDGRIEINVTVRVEQGDKRTELRIHTRATKIDGKWILTSLTLDVR | 1.13
SEEDEDVKRILELWLRSEETGDEHLSLELADPNTRKHQGDKEFHGMSKLVQLLAELYRRADHSHFIEKRVEVFENHVRIVGHFVLIVGEFRIVVDILILARKIDGRWILTRVNWR | 1.51
SEEDEEAERMVRALNHKFRTGDWELSEKLFDPNTKLEIIINGKHIDIHGREMVIRLMEDELRRFDHVDIEIKRVDSQGEKANNDGVLVIKQGDFEVRHRFTLIIHVVNGVIKKISILFH | 0.996
SEEDEEAERWVRMLEHLIRTGDEEILNSFADPNVRYIQGDKHLHGRETVYEYLEELWRKLGVDHMNIKDRHLRVFNGRVHLQLFVHFTVNGRSFDSILRFDTIKIDGQWHMHRIVVEII | 1.31
SEEDEEFKHHIKLLIESLETGDWRTDRRLADPHVRLEVGDKTIHGMDEYLEFMSEIRFTRLEISSVEIQGDKLHANGETDGIVNGKRVKVESTFIIIKVDGRWIIEHERMH | -0.372
SEEDEEFRHVVERWVRAVTTGNEDELESLLDPNVRLDVGDKRTHGREKWTELFRHLRTQVHHIEITEKHTVGDKVHYRGTLDMTFYVDGVDVRSETETTLVMVKYNGRWQYTHVIIH | 1.15
SEEDEEIHRNLRILVEAIHTGDETTMSKLIDPHARLKVGDKDHHGREKMTEFLIELGIDHIVFRRTRIINGRAEHHGHIKVGDKKMETRIISDKIDGKWIITEVIIH | 1.51
SEEDEELKEWLEEFVHALKTGDENLLQRLADPNTRLIFDGRKFHGREEYRKNYEHLRHRIDHIHDEKSTTVHLINGKVTVESRLDGEINGKRIIFKTIIFYWKFDGRWFLRSEEIR | 0.935
SEEDEELREMARLIILLEWTGDEETFEHLADPHVRSHINGVHLHGRETVSKWLMHVREHLRFNDIRIRDLWVFNGKVKINGEYDGHVNGRRIRYTVHLYFVIIDGRIREISREHR | 0.301

Sequence | protease stability score
SEEDEERKHFLELWRESFETGDEDSSRDMADPNTRIHIGDKEQVGWEDVMHEMVKIKNARYHIVVHHVEIQGDKLTMDGEVRIDVNGRLIQIRTIIIARKYDGRWIVTHVHIH | 1.3
SEEDEETEHITRLIFRAMVTGDWKELLDNLDPHTRVDINGRDQHGWEVMREWVERIKNVQLRIRRISVQGDKTRLDTEFRQGDKSVHVEVRITIVDGVVQHIEFKDR | 1.6
SEEDEETRKFLDLLFETRHTGDEEMSRQLADPNYQEEFENHTFHGREDFSRFIKELRIHEIRITHIYAQGDKLHIDGELRGEFNGQEVRFRVELHVVKIDGRWVLKSMRVV | 1.44
SEEDEEVRHVLELLIHAWRTGDERLLMHLLDPHAKFIVGDKELHGREQISRVWKELRIEDSDVHSIELVNGRLRLDTHLIITIGDKHVDVKTRELIVKIDGRWVLEFLEVR | 1.37
SEEDEFNREMRREIIEAWETGDFRIIEKLLDPNAKVVVGDYIDHGRHAIEVWLKRYDVRRRRDYKHVEVYDGVIRSDVRMDGEINGQRKITSVHIIFVIINGRIHQVEIHIH | 1.25
SEEDEFVHEMVEILLKMFLTGDFQHFKRLADPHVMFVFNGKRFHGRHWVLDELIRFPNIKFELTHYEFDDINGVVHINIFGQRDVDGKNENVELHFVVEKVDGRWKIHRIIFRLR | 1.11
SEEDEHAEHMLRLWLHAIETGDEKLLLELVDPHAKNDVNGVDLHGRHEVWRHVYEMLHKFKNIRWDITETRYIGDYVHIRGILRQGDKTHDIRIKVVSFNGRIKKVEIRIE | 2.48
SEEDEHLERLFRDLIDSFVTGDEDSWHQLADPNARLIVGDKTYHGREKISEYWRRMREEIRVEIKVDHVDIQGDKVHSRVTLIVRINGREIRRDTHMLIIVWNGRFKEERIIPR | 1.25
SEEDEHLRHLAELFVKLLLTGDFNTLHHLLDPHVKFNIGEFESHGMEHLWRAWEEWRFHHISLEDVRVQGDKAHLHFRSTVHYNGRTKRVDTHVEIKVVNGRFKEVHIRIH | 1.59
SEEDEHMRRLVEIIIHNWHTGDEEKLANMMDPNAKSNINGVELIGRDLITSFLKEELKRLGVKHVHDTEIHLQGNKSIIHSRVHVNGVDIEMEIIIIIIDGVIKEVEWRRR | 1.96
SEEDEHSERALTLLNHLIMTGDFHDWERFFDPHVRFVVNGVEFHGREDVVRFLLELLERFKNVKIEMESWEIQGDKITSHYHEHVNGVRIERTVIMRKFNGRWFIQEVRFN | 0.281
SEEDEIAEKILRLYLELFKTGDWRRFEELLDPNVRLEFNGRFYHGREEISRIMKEFHNKFKNVRIELTSFEVQGEKNIMRSSENINGVERETEIYLDIWNGRIQSLIIRVR | 2.25
SEEDEIAKHVWERFFKNVLTGDEDTLLRLLDPDTRLIVIIGDKEIHLHGREELSKFLSELRIHHLEITDWVSQGEKARTHVRSDGTVDGKRHHTEMELILIVINGRIKEIRILVR | 1.07
SEEDEIMRRLIDITLHAFQTGDWEAVKTMADPNTRLHVNGRDIHGRDEILRFLEKSRRDLGVENIRIDYTDYRQFDGKVKYHGTDIYNGQRLETTIIIVIVDGKMKTETREIR | 0.82
SEEDEIVRKLSEIMIHSLETGDFDSFRELADPDYRIETEDHEIVGMEEFERWLKEHLDRFDYDKWEYHSLHIYGDKVKMDIELHLDIDGVKRTHDVYIIIRKYNGQWIVESFMFK | -0.384
SEEDEKKEEETRLMLEWWRTGDEHAIARNMDPDARLEVDGKERHGREEVLRFISEMLKRLGVDHVRITDWRIIGDFVEVDLSIEVGDKSRKFHLHFFIIDGRIKEIKIDER | 1.39
SEEDEKSHKLWEEMLEIFMTGDWKRESELADPEARRVFIVDGVNHVFHGRETITEALLRWHKEMRVHDFKLHDRRYQGEKFHVDGIVDGEYNGKKRIYEVEIIIIVVDGRVHSLEFEHK | 0.296
SEEDELAHRWVRTWVRAVETGDEDTLTELFDPHARIIITIGDKDIRLHGMHEMLRWYRFFKGMRIELEDMDIQGEKIDTDIRLHQGDKTTTTKLQLHIVNGRMEHVILRVQ | 1.54

Source: the NTF2 design screens of Basanta et al. (2020)
